In patent publication US20210032365A1 (Chugai, published 2021):

T1: human C1s (human, UniProt P09871 16-688)
T1 construct: Analyte in the Biacore assays; also called hC1s; serum-derived human C1s (CompTech)
T1 sequence: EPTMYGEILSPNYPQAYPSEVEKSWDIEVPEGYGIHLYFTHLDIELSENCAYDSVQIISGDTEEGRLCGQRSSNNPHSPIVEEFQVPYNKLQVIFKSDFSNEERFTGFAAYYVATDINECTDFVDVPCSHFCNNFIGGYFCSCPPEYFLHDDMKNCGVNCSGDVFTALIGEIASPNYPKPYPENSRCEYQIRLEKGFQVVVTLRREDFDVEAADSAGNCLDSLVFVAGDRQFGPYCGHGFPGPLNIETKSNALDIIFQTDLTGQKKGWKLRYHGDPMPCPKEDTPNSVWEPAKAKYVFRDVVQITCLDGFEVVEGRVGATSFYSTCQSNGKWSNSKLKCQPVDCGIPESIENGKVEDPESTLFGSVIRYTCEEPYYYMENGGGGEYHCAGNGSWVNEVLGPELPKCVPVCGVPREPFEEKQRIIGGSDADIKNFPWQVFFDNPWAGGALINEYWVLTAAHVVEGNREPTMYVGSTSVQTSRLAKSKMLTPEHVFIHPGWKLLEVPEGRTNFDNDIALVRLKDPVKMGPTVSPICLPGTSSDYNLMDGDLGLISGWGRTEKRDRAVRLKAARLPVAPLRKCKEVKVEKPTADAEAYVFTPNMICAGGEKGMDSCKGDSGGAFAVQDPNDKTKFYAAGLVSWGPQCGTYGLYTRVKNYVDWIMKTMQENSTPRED

T2: human C1s (human, UniProt P09871 16-688)
T2 construct: also called hC1s; serum-derived human C1s (CompTech)
T2 sequence: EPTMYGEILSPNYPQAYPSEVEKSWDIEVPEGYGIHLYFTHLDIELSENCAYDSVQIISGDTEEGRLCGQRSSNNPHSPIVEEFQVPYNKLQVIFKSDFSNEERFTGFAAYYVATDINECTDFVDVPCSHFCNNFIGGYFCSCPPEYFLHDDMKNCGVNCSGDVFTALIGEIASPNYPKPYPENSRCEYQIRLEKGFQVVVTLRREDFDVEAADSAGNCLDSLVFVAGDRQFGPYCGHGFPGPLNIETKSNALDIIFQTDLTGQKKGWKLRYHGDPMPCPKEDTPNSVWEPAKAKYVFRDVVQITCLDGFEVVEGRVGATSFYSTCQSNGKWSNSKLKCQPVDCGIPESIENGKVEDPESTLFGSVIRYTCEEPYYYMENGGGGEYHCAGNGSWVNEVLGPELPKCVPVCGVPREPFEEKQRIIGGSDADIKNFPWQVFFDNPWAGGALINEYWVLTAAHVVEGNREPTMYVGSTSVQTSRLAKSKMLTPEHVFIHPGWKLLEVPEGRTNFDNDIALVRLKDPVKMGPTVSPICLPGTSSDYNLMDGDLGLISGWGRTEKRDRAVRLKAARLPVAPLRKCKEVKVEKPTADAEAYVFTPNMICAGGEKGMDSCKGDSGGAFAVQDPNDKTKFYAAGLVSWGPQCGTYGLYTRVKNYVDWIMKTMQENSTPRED


Key:
human C1s [1] = target: T1, human C1s; test: SPR; KD at pH 5.8 (3 uM Ca) over KD at pH 7.4 (1.2 mM Ca)
Protocol: (§1) Each antibody was captured onto the sensor surface by protein A/G. Antibody capture levels were aimed at 200 resonance unit (RU). Serum-derived human C1s (CompTech) or recombinant C1s prepared in EXAMPLE 1 was injected at 50 nM, followed by dissociation. The sensor surface was regenerated in each cycle with 10 mM Glycine-HCl, pH 1.5. […] The ratio of KD 5.8+ to KD 7.4+(“KD 5+/7+”) and that of KD 5.8− to KD 7.4+(“KD 5−/7+”) were calculated. When the KD 5+/7+ or KD 5−/7+ of a variant is larger than that of the parent antibody IPN009VH2-SG4GK/IPN009VK3-SK1, that variant is considered to be “pH”- or “pH and Ca”-dependent, respectively. When binding response in 5(+) buffer and/or in 5(−) buffer of a variant is much lower than that of IPN09VH2/IPN009VK3, that variant is also considered as “pH”- and/or “pH and Ca”-dependent. Therefore, such mutations are effective to generate “pH”- and/or “pH and Ca”-dependent antibody. To further enhance “pH” and/or “pH and Ca” dependency, a combination of histidine mutations was conducted. Antibodies with combinations of histidine mutations were evaluated using Biacore by the method described above.
(§2) C1_1IPN92H0033 (SEQ ID NO: 17)-SG4GK/IPN93L0024 (SEQ ID NO: 18)-SK1 (IPN92H0033/IPN93L0024) was selected for further optimization. Histidine, Lysine, Arginine, aspartic acid, glutamic acid, and glutamine scanning was conducted for CDRs and certain positions of FRs of IPN92H0033/IPN93L0024. Variants with a mutation were generated and purified, and evaluated using Biacore by the method mentioned above. All variants were evaluated using Biacore as mentioned above. Mutations that improved “pH” and/or “pH and Ca” dependency were selected for the combination.

human C1s [2] = target: T1, human C1s; test: SPR; KD at pH 5.8 (1.2 mM Ca) over KD at pH 7.4 (1.2 mM Ca)
Protocol: as §1, §2

human C1s [3] = target: T1, human C1s; test: SPR (Biacore T200, 37C), Ab captured on protein A/G; pH 5.8, 3 uM Ca
Protocol: as §1, §2

human C1s [4] = target: T1, human C1s; test: SPR (Biacore T200, 37C), Ab captured on protein A/G; pH 5.8, 1.2 mM Ca
Protocol: as §1, §2

human C1s [5] = target: T2, human C1s; test: SPR; KD pH 5.8 1.2 mM Ca / KD pH 7.4 1.2 mM Ca
Protocol: (§3) All variants were transiently expressed and purified by the method described above. The binding affinity of each histidine-substituted variant at pH 7.4 and pH 5.8 was determined at 37 degrees C. using Biacore T200 instrument (GE Healthcare). Recombinant Protein A/G (Pierce) was immobilized onto all flow cells of a CM4 sensor chip using an amine coupling kit (GE Healthcare). Antibodies and analytes were prepared in 7(+) buffer (20 mM ACES, 150 mM NaCl, 1.2 mM CaCl2, 0.05% Tween 20, 0.005% NaN3, pH 7.4), 5(+) buffer (20 mM ACES, 150 mM NaCl, 1.2 mM CaCl2, 0.05% Tween 20, 0.005% NaN3, pH 5.8), or 5(−) buffer (20 mM ACES, 150 mM NaCl, 3 micro M CaCl2, 0.05% Tween 20, 0.005% NaN3, pH 5.8). Each antibody was captured onto the sensor surface by protein A/G. Antibody capture levels were aimed at 200 resonance unit (RU). Serum-derived human C1s (CompTech) or recombinant C1s prepared in EXAMPLE 1 was injected at 50 nM, followed by dissociation. The sensor surface was regenerated in each cycle with 10 mM Glycine-HCl, pH 1.5. […] The ratio of KD 5.8+ to KD 7.4+(“KD 5+/7+”) and that of KD 5.8− to KD 7.4+(“KD 5−/7+”) were calculated. When the KD 5+/7+ or KD 5−/7+ of a variant is larger than that of the parent antibody IPN009VH2-SG4GK/IPN009VK3-SK1, that variant is considered to be “pH”- or “pH and Ca”-dependent, respectively. When binding response in 5(+) buffer and/or in 5(−) buffer of a variant is much lower than that of IPN09VH2/IPN009VK3, that variant is also considered as “pH”- and/or “pH and Ca”-dependent. Therefore, such mutations are effective to generate “pH”- and/or “pH and Ca”-dependent antibody. To further enhance “pH” and/or “pH and Ca” dependency, a combination of histidine mutations was conducted. Antibodies with combinations of histidine mutations were evaluated using Biacore by the method described above.

human C1s [6] = target: T2, human C1s; test: SPR, Ab captured; pH 7.4, 1.2 mM Ca
Protocol: as §3

human C1s [7] = target: T2, human C1s; test: SPR; KD pH 5.8 3 uM Ca / KD pH 7.4 1.2 mM Ca
Protocol: as §3

human C1s [8] = target: T2, human C1s; test: SPR, Ab captured; pH 5.8, 3 uM Ca
Protocol: as §3

human C1s [9] = target: T2, human C1s; test: SPR, Ab captured; pH 5.8, 1.2 mM Ca
Protocol: as §3

human C1s [10] = target: T2, human C1s; test: SPR, Ab captured; pH 7.4, 1.2 mM Ca; remark: listed apart in the source
Protocol: as §1, §2

Row | KD 5(-)/7(+) (human C1s [1]) | KD 5(+)/7(+) (human C1s [2]) | Kd (human C1s [3]) [nM] | koff (human C1s [3]) [s⁻¹] | kon (human C1s [3]) [M⁻¹ s⁻¹] | Kd (human C1s [4]) [nM] | koff (human C1s [4]) [s⁻¹] | kon (human C1s [4]) [M⁻¹ s⁻¹] | KD 5(+)/7(+) (human C1s [5]) | koff (human C1s [6]) [s⁻¹] | kon (human C1s [6]) [M⁻¹ s⁻¹] | KD 5(-)/7(+) (human C1s [7]) | koff (human C1s [9]) [s⁻¹] | kon (human C1s [9]) [M⁻¹ s⁻¹] | Binder | also measured
1 | 3.75 | 11.6 | 6.79 | 0.00533 | 784000 | 21 | 0.0198 | 945000 |  |  |  |  |  |  | C1_IPN92H0288-SG4GK/IPN93L0212-SK1 (antibody, human IgG4 S228P, kappa, name in Kabat numbering, V domains shown, VL substitutions from IPN009VK3, Kabat numbering; also called IPN92H0288/IPN93L0212) VH: EVMLVESGGGLVKPGGSLRLSCAASGFTFSNYAMSWVRQAPGKGLEWVATISSGGSHTYELDSVDGRFTISRDNSKDTLYLQMNSLRAEDTALYYCARLFTKHAMDYWGQGTLVTVSS VL: QIVLTQSPATLSLSPGERATLSCTASSEVSESRLHWYQQKPGKAPKLWIYSTSNLASGVPSRFSGSGSGTDYTLTISSLQPEDFATYYCHQYYRLHPITFGQGTKLEIKR | 
2 | 2.94 | 4.2 | 4.65 | 0.00477 | 1.03e+06 | 6.57 | 0.00346 | 527000 |  |  |  |  |  |  | C1_IPN92H0286-SG4GK/IPN93L0205-SK1 (antibody, human IgG4 S228P, kappa, name in Kabat numbering, Substitutions from IPN009VH2 / IPN009VK3, Kabat numbering; also called IPN92H0286/IPN93L0205) heavy: not shown light: QIVLTQSPATLSLSPGERATLSCTASSSVSSSRLHWYQQKPGKAPKLWIYSTSNLASGVPSRFSGSGSGTDYTLTISSLQPEDFATYYCHQYHRHPPITFGQGTKLEIKRTVAAPSVFIFPPSDEQLKSGTASVVCLLNNFYPREAKVQWKVDNALQSGNSQESVTEQDSKDSTYSLSSTLTLSKADYEKHKVYACEVTHQGLSSPVTKSFNRGEC | 
3 |  |  |  |  |  |  |  |  | 1 | 0.00476 | 343000 | 0.5 | 0.00751 | 534000 | C1_IPN009VH2-SG4GK/IPN93L0028-SK1 (antibody, human IgG4 S228P, kappa, name in Kabat numbering, V domains shown, also called IPN009VH2/IPN93L0028) VH: EVMLVESGGGLVKPGGSLRLSCAASGFTFSNYAMSWVRQAPGKGLEWVATISSGGSHTYYLDSVKGRFTISRDNSKDTLYLQMNSLRAEDTALYYCARLFTGYAMDYWGQGTLVTVSS VL: QIVLTQSPATLSLSPGERATLSCTASSSVSSSYLHWYQQKPGKAPKLWIYSTSNLASGVPSRFSGSGSGTDYTLTISSLQPEDFATYYCHQYHRHPPITFGQGTKLEIKR | Kd (human C1s [6]): 13.9 nM; Kd (human C1s [8]): 6.66 nM; koff (human C1s [8]): 0.00351 s⁻¹; kon (human C1s [8]): 528000 M⁻¹ s⁻¹; Kd (human C1s [9]): 14.1 nM
4 |  |  |  |  |  |  |  |  | 3 | 0.000776 | 268000 | 1.8 | 0.0045 | 519000 | C1_IPN92H0033-SG4GK/IPN93L0024-SK1 (antibody, human IgG4 S228P, kappa, also called IPN92H0033/IPN93L0024) heavy: not shown light: QIVLTQSPATLSLSPGERATLSCTASSSVSSSYLHWYQQKPGKAPKLWIYSTSNLASGVPSRFSGSGSGTDYTLTISSLQPEDFATYYCHQYYRLHPITFGQGTKLEIKRTVAAPSVFIFPPSDEQLKSGTASVVCLLNNFYPREAKVQWKVDNALQSGNSQESVTEQDSKDSTYSLSSTLTLSKADYEKHKVYACEVTHQGLSSPVTKSFNRGEC | koff (human C1s [10]): 0.000776 s⁻¹; kon (human C1s [10]): 268000 M⁻¹ s⁻¹
